B1: Protein phosphatase EYA1 (Mus musculus), P97767 (parent)
chain: MEMQDLTSPHSRLSGSSESPSGPKLDSSHINSTSMTPNGTEVKTEPMSSSEIASTAADGSLDSFSGSALGSSSFSPRPAHPFSPPQIYPSKSYPHILPTPSSQTMAAYGQTQFTTGMQQATAYATYPQPGQPYGISSYGALWAGIKTESGLSQSQSPGQTGFLSYGTSFGTPQPGQAPYSYQMQGSSFTTSSGLYSGNNSLTNSSGFNSSQQDYPSYPGFGQGQYAQYYNSSPYPAHYMTSSNTSPTTPSTNATYQLQEPPSGVTSQAVTDPTAEYSTIHSPSTPIKETDSERLRRGSDGKSRGRGRRNNNPSPPPDSDLERVFIWDLDETIIVFHSLLTGSYANRYGRDPPTSVSLGLRMEEMIFNLADTHLFFNDLEECDQVHIDDVSSDDNGQDLSTYNFGTDGFPAAATSANLCLATGVRGGVDWMRKLAFRYRRVKEIYNTYKNNVGGLLGPAKREAWLQLRAEIEALTDSWLTLALKALSLIHSRTNCVNILVTTTQLIPALAKVLLYGLGIVFPIENIYSATKIGKESCFERIIQRFGRKVVYVVIGDGVEEEQGAKKHAMPFWRVSSHSDLMALHHALELEYL
partner: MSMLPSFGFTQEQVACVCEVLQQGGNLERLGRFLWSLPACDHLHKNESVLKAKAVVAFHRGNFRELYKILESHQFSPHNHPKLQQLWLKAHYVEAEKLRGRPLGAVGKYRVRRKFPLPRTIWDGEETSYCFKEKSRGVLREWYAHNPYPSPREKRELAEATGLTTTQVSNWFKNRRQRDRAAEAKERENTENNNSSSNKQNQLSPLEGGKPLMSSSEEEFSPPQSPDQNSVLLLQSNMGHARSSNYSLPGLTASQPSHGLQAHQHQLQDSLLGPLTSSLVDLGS
B2: Protein phosphatase EYA1 (Mus musculus), P97767 (parent)
chain: B1 chain
partner: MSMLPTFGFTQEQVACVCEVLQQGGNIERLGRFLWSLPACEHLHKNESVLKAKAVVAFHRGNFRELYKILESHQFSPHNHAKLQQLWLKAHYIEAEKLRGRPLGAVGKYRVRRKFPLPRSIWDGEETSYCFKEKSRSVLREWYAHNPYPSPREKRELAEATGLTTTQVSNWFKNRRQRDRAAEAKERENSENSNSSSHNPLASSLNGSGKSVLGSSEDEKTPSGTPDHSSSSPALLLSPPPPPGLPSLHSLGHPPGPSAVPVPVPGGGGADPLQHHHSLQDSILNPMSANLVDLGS

Variants of: B1
Settings: with six1_mouse Six1, Q62231

Row | Variant | effect of a mutation on the interaction
1 | E330K | disrupting interaction
2 | S486P | disrupting interaction
3 | L504R | disrupting interaction

Variants of: B1
Settings: with six1_mouse Six1, Q62231
Remark: another data set of the same source

Row | Variant | effect of a mutation on the interaction
4 | E330K | decreasing interaction
5 | S486P | decreasing interaction
6 | L504R | decreasing interaction

Variants of: B2
Settings: with six2_mouse Six2, Q62232

Row | Variant | effect of a mutation on the interaction
7 | E330K | decreasing interaction
8 | G425S | decreasing interaction
9 | S486P | decreasing interaction
10 | L504R | decreasing interaction

Reference: IntAct's records for PubMed 11734542
